Target: T1, HiLyte Fluor 488-labelled Aβ42 oligomers (human, UniProt P05067 672-713, HiLyte Fluor 488 label (position not given))
T1 construct: amyloid beta-peptide 1-42 (Aβ42), human, the cut product of the amyloid precursor protein; Oligomeric species in the 6 hour aggregation mixture, told from monomers by photobleaching; also called Aβ oligomers; oligomeric Aβ; source: synthetic peptide, bought: AnaSpec; aggregated at 0.5 μM in PBS pH 7.4 for 6 hours
Assay: single-molecule TIRF two-colour coincidence detection; HiLyte Fluor 488 Aβ42 aggregated 6 hours at 0.5 μM in PBS pH 7.4, dye-labelled sTREM2 added and imaged on slides; monomers told from oligomers by photobleaching; chance coincidence subtracted
Settings: both partners purified

B1: dye-labelled wild-type sTREM2 (TREM2 ectodomain) for single-molecule TIRF (domain or fragment, UniProt Q9NZC2 19-143, looked up)
chain: HNTTVFQGVAGQSLQVSCPYDSMKHWGRRKAWCRQLGEKGPCQRVVSTHNLWLLSFLRRWNGSTAITDDTLGGTLTITLRNLQPHDAGLYQCQSLHGSEADTLRKVLVEVLADPLDHRDAGDLWF
modifications: fluorescent dye label: TAMRA in the results, AF647 in the methods (position not given)
notes: TREM2 residues 19-143, wild type; The labelled form of m10; also called TAMRA-dye labelled sTREM2; AF647-TREM2; source: Freestyle 293-F cells, transfected (pHLSec), purified from conditioned medium (IMAC, gel filtration), dye-labelled
B1: binds.
